Assay results taken from patent US20130040882A1, “USE OF FIBROBLAST GROWTH FACTOR FRAGMENTS” (NOVARTIS AG, priority 2003, published 2013).
Several values for one entry are separate records, joined by “and”; a condition that tells them apart may be missing. Identical values can stand only once. Like-named read-outs stand apart in the source and are kept apart here.

System: transcript levels in organs
Assay type: in vivo, cynomolgus monkey

B1: FGF23CTP: unique 75-mer COOH-terminal peptide of FGF-23, SEQ ID NO: 2 (peptide, listed as Homo sapiens)
chain: HTRSAEDDSERDPLNVLKPRARMTPAPASCSQELPSAEDNSPMASDPLGVVRGGRVNTHAGGTGPEGCRPFAKFI
AV node
  Gene expression level after 2 weeks, mean: EGF-response factor 1: 1,819.7
  Gene expression level after 2 weeks, mean: Endothelial differentiation receptor 6: 306.9
  Gene expression level after 2 weeks, mean: FLT receptor tyrosine kinase 1: 120.1
  Gene expression level after 2 weeks, mean: Insulin-like growth factor II: 565.275
  Gene expression level after 2 weeks, mean: Insulin-like growth factor binding protein 2: 880.75
  Gene expression level after 2 weeks, mean: Vascular endothelial growth factor-A (VEGFA): 363.7
Adrenal
  Gene expression level after 2 weeks, mean: Activin A receptor type II: 58.5
  Gene expression level after 2 weeks, mean: Bone morphogenetic protein 1: 210.6
  Gene expression level after 2 weeks, mean: Bone morphogenetic protein receptor, type II: 101.25
  Gene expression level after 2 weeks, mean: Cdk-inhibitor 1A p21 (Cip1): 51.75
  Gene expression level after 2 weeks, mean: E2F-5: 39.6
  Gene expression level after 2 weeks, mean: FGF receptor-1: 624.2
  Gene expression level after 2 weeks, mean: FLK1 receptor tyrosine kinase: 42.7
  Gene expression level after 2 weeks, mean: VE-cadherin: 110.2
B marrow
  Gene expression level after 2 weeks, mean: Colony-stimulating factor-1: 981.3
  Gene expression level after 2 weeks, mean: Insulin-like growth factor II: 209.5
Bone Marrow
  Gene expression level after 2 weeks, mean: Angiopoietin-1: 123.2
  Gene expression level after 2 weeks, mean: Cyclin E2: 257
  Gene expression level after 2 weeks, mean: E2F dimerization partner 2 (DP2): 1222
  Gene expression level after 2 weeks, mean: Endothelial differentiation receptor 4: 494.8
  Gene expression level after 2 weeks, mean: Mdm2: 20
  Gene expression level after 2 weeks, mean: TEK tyrosine kinase, angiopoietin receptor: 52.7
Duodenum
  Gene expression level after 2 weeks, mean: Bone morphogenetic protein 2A: 55.3
  Gene expression level after 2 weeks, mean: Cdk-inhibitor p57KIP2 (KIP2): 138.6
  Gene expression level after 2 weeks, mean: Cyclin I: 900.6
  Gene expression level after 2 weeks, mean: FLT receptor tyrosine kinase 1: 70.7
  Gene expression level after 2 weeks, mean: Farnesol receptor HRR-1: 53.1
Hippocampus
  Gene expression level after 2 weeks, mean: Cyclin-dependent kinase 5: 118.7
  Gene expression level after 2 weeks, mean: E2F-4: 153.4
  Gene expression level after 2 weeks, mean: Neuregulin 1: 86.075
Muscle
  Gene expression level after 2 weeks, mean: Cyclin D3: 149.2
  Gene expression level after 2 weeks, mean: E2F-4: 643.8
  Gene expression level after 2 weeks, mean: Endothelial differentiation receptor 6: 181.9
  Gene expression level after 2 weeks, mean: Insulin-like growth factor I: 107.65
  Gene expression level after 2 weeks, mean: Placental growth factor: 91.4
  Gene expression level after 2 weeks, mean: Retinoid X receptor-gamma: 580.9
  Gene expression level after 2 weeks, mean: Transforming growth factor β2: 58.3
  Gene expression level after 2 weeks, mean: p53 binding protein: 138.7
ROHY
  Gene expression level after 2 weeks, mean: Activin A receptor type II: 54.9
  Gene expression level after 2 weeks, mean: Angiopoietin-1: 162.5
  Gene expression level after 2 weeks, mean: Brain-specific angiogenesis inhibitor 1 (MAS5): 225.1
  Gene expression level after 2 weeks, mean: Cdk-inhibitor p19: 267.8
  Gene expression level after 2 weeks, mean: Colony-stimulating factor-1: 802.5
  Gene expression level after 2 weeks, mean: Cyclin A/CDK2-associated p19 (Skp1): 1069.6
  Gene expression level after 2 weeks, mean: Cyclin D2: 197.1
  Gene expression level after 2 weeks, mean: Cyclin-dependent kinase 4: 197.6
  Gene expression level after 2 weeks, mean: E2F-4: 245.9
  Gene expression level after 2 weeks, mean: EPHB2v protein-tyrosine kinase: 119.1
  Gene expression level after 2 weeks, mean: Epidermal growth factor receptor: 103.1
  Gene expression level after 2 weeks, mean: FGF receptor-1: 932.4
  Gene expression level after 2 weeks, mean: Growth differentiation factor 1: 1,410.2
  Gene expression level after 2 weeks, mean: RalGDS/AF-6 (inhibitor of Cyclin D1): 300.5
  Gene expression level after 2 weeks, mean: Retinoblastoma 1: 467.9
  Gene expression level after 2 weeks, mean: Retinoblastoma binding protein 4: 164
  Gene expression level after 2 weeks, mean: Retinoid X receptor-beta: 106.925
  Gene expression level after 2 weeks, mean: S-phase response (cyclin-related): 176
  Gene expression level after 2 weeks, mean: Transforming growth factor β3: 88.4
  Gene expression level after 2 weeks, mean: Tumour necrosis factor receptor-2: 126.4
  Gene expression level after 2 weeks, mean: VEGFB: 626.2
  Gene expression level after 2 weeks, mean: Vascular endothelial growth factor-A (VEGFA): 326.175
  Gene expression level after 2 weeks, mean: p53 binding protein: 154.7
Re atrium
  Gene expression level after 2 weeks, mean: S-phase response (cyclin-related): 159.1
Retina
  Gene expression level after 2 weeks, mean: Activin A receptor type II: 34.1
  Gene expression level after 2 weeks, mean: Brain-specific angiogenesis inhibitor 2: 153.2
  Gene expression level after 2 weeks, mean: Cyclin D2: 132
  Gene expression level after 2 weeks, mean: Insulin-like growth factor binding protein 2: 807.9
Thymus
  Gene expression level after 2 weeks, mean: Cdk-inhibitor p57KIP2 (KIP2): 247.9
  Gene expression level after 2 weeks, mean: FGF receptor-1: 153.2
Cynomolgus monkey, in vivo
  Gene expression level after 2 weeks, mean: TNFR-related death receptor-3: 82.4
  Gene expression level after 2 weeks, mean: TNFR-related death receptor-6: 144.65 and 98.8
kidney
  Gene expression level after 2 weeks, mean: Bone morphogenetic protein 10: 138.6
  Gene expression level after 2 weeks, mean: Colony-stimulating factor-1: 659.75
  Gene expression level after 2 weeks, mean: E2F-1: 198.5
  Gene expression level after 2 weeks, mean: E2F-4: 741.6
  Gene expression level after 2 weeks, mean: Neuregulin 1: 150.725
liver
  Gene expression level after 2 weeks, mean: Bone morphogenetic protein 10: 134.1
  Gene expression level after 2 weeks, mean: EPHB2v protein-tyrosine kinase: 82.6
  Gene expression level after 2 weeks, mean: Endothelial differentiation receptor 4: 391.7
  Gene expression level after 2 weeks, mean: Farnesol receptor HRR-1: 383.3
  Gene expression level after 2 weeks, mean: Insulin-like growth factor I: 1,055.4
  Gene expression level after 2 weeks, mean: Insulin-like growth factor II: 606.9
  Gene expression level after 2 weeks, mean: Insulin-like growth factor binding protein 1: 1,517
  Gene expression level after 2 weeks, mean: Insulin-like growth factor binding protein 2: 3,858.6
Rostral hypothalamus
  Gene expression level after 2 weeks, mean: 14-3-3 protein tau: 1,748.5
  Gene expression level after 2 weeks, mean: Amyloid beta precursor protein (cytoplasmic tail)-binding protein 2: 191.3
  Gene expression level after 2 weeks, mean: Anion exchanger: 844.5
  Gene expression level after 2 weeks, mean: Axl: 60.3
  Gene expression level after 2 weeks, mean: BAX: 134.4
  Gene expression level after 2 weeks, mean: Bcl-2-binding protein Nip3: 794.8
  Gene expression level after 2 weeks, mean: Bmi-1 homeobox gene repressor: 374.7
  Gene expression level after 2 weeks, mean: CMP-sialic acid transporter: 135.075
  Gene expression level after 2 weeks, mean: CREB binding protein: 93
  Gene expression level after 2 weeks, mean: Ca2+-ATPase: 174.4
  Gene expression level after 2 weeks, mean: Calcineurin A1: 173.975
  Gene expression level after 2 weeks, mean: Cholecystokinin A receptor: 196
  Gene expression level after 2 weeks, mean: Connexin 43: 184.5
  Gene expression level after 2 weeks, mean: Delta 2 catenin: 118
  Gene expression level after 2 weeks, mean: Erk3: 409.5
  Gene expression level after 2 weeks, mean: FYN: 958.1
  Gene expression level after 2 weeks, mean: GDP dissociation inhibitor beta: 125.8
  Gene expression level after 2 weeks, mean: Glycogen synthase kinase 3: 155.5
  Gene expression level after 2 weeks, mean: Hypoxia-inducible factor 1 alpha: 286.5
  Gene expression level after 2 weeks, mean: Inhibitor of DNA binding 4: 67.6
  Gene expression level after 2 weeks, mean: JNK2: 79.9
  Gene expression level after 2 weeks, mean: Jagged 1: 70.3
  Gene expression level after 2 weeks, mean: Janus kinase 1: 43.3
  Gene expression level after 2 weeks, mean: Mnb (Minibrain): 446
  Gene expression level after 2 weeks, mean: Myelin oligodendrocyte glycoprotein: 62.7
  Gene expression level after 2 weeks, mean: Myosin regulatory light chain: 177.2
  Gene expression level after 2 weeks, mean: NIPSNAP2 (glioblastoma co-amplified): 118.7
  Gene expression level after 2 weeks, mean: Na,K-ATPase: 1,453.2
  Gene expression level after 2 weeks, mean: Neural cell adhesion molecule 1: 988.6
  Gene expression level after 2 weeks, mean: Neurofibromin: 144
  Gene expression level after 2 weeks, mean: Oligodendrocyte myelin glycoprotein OMGP: 773.5
  Gene expression level after 2 weeks, mean: PKR Interferon-inducible: 128.25
  Gene expression level after 2 weeks, mean: Phosphodiesterase 4B: 60.6
  Gene expression level after 2 weeks, mean: Phosphoinositide 3-kinase: 241.5
  Gene expression level after 2 weeks, mean: Phosphoinositide-3-kinase, catalytic, delta polypeptide: 241.5
  Gene expression level after 2 weeks, mean: Phospholipase C: 72.1
  Gene expression level after 2 weeks, mean: Pim1: 327.5
  Gene expression level after 2 weeks, mean: Pinin, Desmosome associated protein: 119.7
  Gene expression level after 2 weeks, mean: RAB1: 143.9
  Gene expression level after 2 weeks, mean: RAB5: 809.8
  Gene expression level after 2 weeks, mean: RAB11A: 344.9
  Gene expression level after 2 weeks, mean: RAB11B: 71.2
  Gene expression level after 2 weeks, mean: RAS p21 protein activator: 163
  Gene expression level after 2 weeks, mean: RNP24: 558.2
  Gene expression level after 2 weeks, mean: Reticulon 4: 1,309.2
  Gene expression level after 2 weeks, mean: Retinoic acid receptor: 110
  Gene expression level after 2 weeks, mean: Ribosomal protein kinase B (RSK-B): 120
  Gene expression level after 2 weeks, mean: SFRS protein kinase 2: 205.8
  Gene expression level after 2 weeks, mean: SNARE: 55.4
  Gene expression level after 2 weeks, mean: STAT1: 119.3
  Gene expression level after 2 weeks, mean: Sodium/hydrogen exchanger: 785.5
  Gene expression level after 2 weeks, mean: Sphingomyelinase: 259.5
  Gene expression level after 2 weeks, mean: TYRO3: 163.1
  Gene expression level after 2 weeks, mean: TrkB: 40.8
  Gene expression level after 2 weeks, mean: Tropomyosin 2 (beta): 131.6
  Gene expression level after 2 weeks, mean: Tropomyosin 4: 140.6
  Gene expression level after 2 weeks, mean: c-abl: 119.4
  Gene expression level after 2 weeks, mean: c-raf: 327.5
  Gene expression level after 2 weeks, mean: c-yes: 64.7
Second line, organ cell empty (below ROHY)
  Gene expression level after 2 weeks, mean: RalGDS/AF-6 (inhibitor of Cyclin D1): 354.5
